The target of this series is T1, MEIS1 (human, UniProt O00470 1-390).
T1 sequence: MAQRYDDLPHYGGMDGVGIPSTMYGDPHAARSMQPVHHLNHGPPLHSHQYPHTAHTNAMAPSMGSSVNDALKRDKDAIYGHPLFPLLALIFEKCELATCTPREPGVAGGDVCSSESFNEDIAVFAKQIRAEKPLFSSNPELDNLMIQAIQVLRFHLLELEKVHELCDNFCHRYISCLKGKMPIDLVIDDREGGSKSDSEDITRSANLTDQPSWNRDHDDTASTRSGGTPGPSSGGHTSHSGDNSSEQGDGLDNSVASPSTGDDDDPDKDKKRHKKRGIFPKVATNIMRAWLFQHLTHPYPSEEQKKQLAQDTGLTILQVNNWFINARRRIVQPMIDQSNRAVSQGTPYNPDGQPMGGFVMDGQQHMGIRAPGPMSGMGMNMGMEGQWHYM
The series is described as follows: EMSA; EMSA: LightShift Chemiluminescent EMSA kit per manufacturer (buffer not given); protein stock in 50 mM Tris, 200 mM NaCl, 10 mM 2-mercaptoethanol, 10% glycerol, pH 7.5. Pull-down: streptavidin beads, 1 h at 4 C, PBS washes. As to conditions: protein: recombinant; tags: His6-MBP-TEV, tag removed by TEV protease; label: 5' biotin on both strands; blunt.

B1: probe1 (hEC1 MEIS1 site) (dsDNA)
DNA 1: GGAAATGCGGCCCATCAATCATAAACTGATTACAAATTCGTCA
DNA 2: TGACGAATTTGTAATCAGTTTATGATTGATGGGCCGCATTTCC
On to B1, for which the binding result is given as “binds”.

For the origin of these results see PMC12085581, “Auricular malformations are driven by copy number variations in a hierarchical enhancer cluster and a dominant enhancer recapitulates human pathogenesis”.
